Test results taken from the Human Domainome abundance scans (Beltran et al. 2025).
± gives the uncertainty stated by the source.

B1: POU domain, class 3, transcription factor 3, residues 408 to 463; numbered along this chain, P20264 (parent)
chain: KKRTSIEVSVKGALESHFLKCPKPSAQEITNLADSLQLEKEVVRVWFCNRRQKEKR

Variants of: B1
Assay: abundance fitness (aPCA) (normalised: wild type 0, dead -1); higher = more abundant; growth selection in yeast, the domain comes from the species named
Details: Homo sapiens

Question: With KKRTSIEVSVKGALEGHFLKCPKPSAQEITNLADSLQLEKEVVRVWFCNRRQKEKR [S16G] as the variant, how does the abundance fitness read?
Answer: -0.059 ± 0.065

Question: With KKRTSIEVSVKGALESHFLKCPKGSAQEITNLADSLQLEKEVVRVWFCNRRQKEKR [P24G] as the variant, how does the abundance fitness read?
Answer: -1.05 ± 0.11

Question: With KKRTSIEVSVKGALESHFLKCPKPSAQEITNLADSLQLEKEVVRVWFCNRVQKEKR [R51V] as the variant, how does the abundance fitness read?
Answer: -0.222 ± 0.09

Question: With KKRTSIEVSVKGALESHFLKCPKPSAQEITNLADSLQLEKEVVRVWFCNRCQKEKR [R51C] as the variant, how does the abundance fitness read?
Answer: -0.345 ± 0.12

Question: Which abundance fitness does the source give for KKRTSIEVSVKGALESHFLKCPKPSAQEITNIADSLQLEKEVVRVWFCNRRQKEKR [L32I] here?
Answer: 0.187 ± 0.17

Question: For KKRTSIEVSVKGALESHFLKCPKPSAQEITNLADSLILEKEVVRVWFCNRRQKEKR [Q37I], which abundance fitness is on record?
Answer: -0.453 ± 0.13

Question: For KKRTSIEVSVKGALESHFLKCPKPSATEITNLADSLQLEKEVVRVWFCNRRQKEKR [Q27T], which abundance fitness is on record?
Answer: -0.151 ± 0.11

Question: For KKRTSIEVSVKGALESHFLKCPKPSAQEITNLADSLQLEKEVVRVWFCNRRQEEKR [K53E], which abundance fitness is on record?
Answer: -0.013 ± 0.12

Question: Which abundance fitness does the source give for KKRTSIEVSVFGALESHFLKCPKPSAQEITNLADSLQLEKEVVRVWFCNRRQKEKR [K11F] here?
Answer: -0.186 ± 0.12

Question: Which abundance fitness does the source give for KKRTSIEVSVKGALESHFLKCPKPSAQEITNLADSLQLEKEVERVWFCNRRQKEKR [V43E] here?
Answer: -0.792 ± 0.12

Question: With KKRTSIEVSFKGALESHFLKCPKPSAQEITNLADSLQLEKEVVRVWFCNRRQKEKR [V10F] as the variant, how does the abundance fitness read?
Answer: -0.291 ± 0.15

Question: For KKRTSIEVSHKGALESHFLKCPKPSAQEITNLADSLQLEKEVVRVWFCNRRQKEKR [V10H], which abundance fitness is on record?
Answer: 0.072 ± 0.18

Question: Which abundance fitness does the source give for KKRTSIEVSVKGALESHFLKCPKPSAQEITNLADSLQLEKEVVRVWFCNRRKKEKR [Q52K] here?
Answer: -0.112 ± 0.14

Question: Which abundance fitness does the source give for KKRTSIEVSVKGALESHFLKCPKPSAQEITNLADSLQLEKEVVRVWFCNFRQKEKR [R50F] here?
Answer: -0.875 ± 0.18

Question: For KKRTSIEVSVKGALESHFLKCPKPSAQEITNLADSLQQEKEVVRVWFCNRRQKEKR [L38Q], which abundance fitness is on record?
Answer: -0.605 ± 0.11

Question: With KKRTSIEVSVKGALESHFLKCPKPSAQEITNLADSLQLEKEGVRVWFCNRRQKEKR [V42G] as the variant, how does the abundance fitness read?
Answer: -0.339 ± 0.059

Question: With KKRTSIEVSVKGALESHFLKCPKPSAQEITNLADSLQLEKEVVRVWFCNRRQKELR [K55L] as the variant, how does the abundance fitness read?
Answer: -0.006 ± 0.087

Question: With KKRTSIEVSVKGALESHFLKCPKPSAQEITNLADSRQLEKEVVRVWFCNRRQKEKR [L36R] as the variant, how does the abundance fitness read?
Answer: -0.955 ± 0.081

Question: With KKRTSIMVSVKGALESHFLKCPKPSAQEITNLADSLQLEKEVVRVWFCNRRQKEKR [E7M] as the variant, how does the abundance fitness read?
Answer: -0.035 ± 0.075

Question: Which abundance fitness does the source give for KKRTSIVVSVKGALESHFLKCPKPSAQEITNLADSLQLEKEVVRVWFCNRRQKEKR [E7V] here?
Answer: -0.197 ± 0.069

Question: For KKRTSIDVSVKGALESHFLKCPKPSAQEITNLADSLQLEKEVVRVWFCNRRQKEKR [E7D], which abundance fitness is on record?
Answer: 0.05 ± 0.08

Question: For KKRTSIEVSVKGALESHFLKCPKPIAQEITNLADSLQLEKEVVRVWFCNRRQKEKR [S25I], which abundance fitness is on record?
Answer: -0.84 ± 0.41

Question: With KKRTSIEVSVKGALESHFLKCPKPSAQEITNLADSLQLEKEVVRVWFCNRRQKRKR [E54R] as the variant, how does the abundance fitness read?
Answer: -0.485 ± 0.078

Question: With KKRTSIEVSVKGRLESHFLKCPKPSAQEITNLADSLQLEKEVVRVWFCNRRQKEKR [A13R] as the variant, how does the abundance fitness read?
Answer: 0.018 ± 0.064

Question: For KKRTSIEVSVKGALESHFLKCPIPSAQEITNLADSLQLEKEVVRVWFCNRRQKEKR [K23I], which abundance fitness is on record?
Answer: -0.065 ± 0.12

Question: Which abundance fitness does the source give for KKRTSIEVSVKGALESHFLKCPPPSAQEITNLADSLQLEKEVVRVWFCNRRQKEKR [K23P] here?
Answer: -0.724 ± 0.2

Question: Which abundance fitness does the source give for KKRTSIEVSVKGALESHFLKCPKPSAQEYTNLADSLQLEKEVVRVWFCNRRQKEKR [I29Y] here?
Answer: -0.889 ± 0.23

Question: With KKRTSIEVSVKGALESHFLKCPKPSAQEITNLADSLQLEQEVVRVWFCNRRQKEKR [K40Q] as the variant, how does the abundance fitness read?
Answer: 0.122 ± 0.14

Question: Which abundance fitness does the source give for KKRTSIEVSVKGALESHFLKCPKPSAQEITNLADSLQLNKEVVRVWFCNRRQKEKR [E39N] here?
Answer: 0.013 ± 0.13

Question: For KKRTSIEVSVKGALESHILKCPKPSAQEITNLADSLQLEKEVVRVWFCNRRQKEKR [F18I], which abundance fitness is on record?
Answer: -0.973 ± 0.2

Question: With KKRTSIEVSVKGALESHFLKCPKPSRQEITNLADSLQLEKEVVRVWFCNRRQKEKR [A26R] as the variant, how does the abundance fitness read?
Answer: -0.073 ± 0.064

Question: With KKRTSIEVSVKGALESHFLKCPKPSAQSITNLADSLQLEKEVVRVWFCNRRQKEKR [E28S] as the variant, how does the abundance fitness read?
Answer: -0.45 ± 0.09

Question: For KKRTSIEVSVKGALESHFLKCPKPSAQEIVNLADSLQLEKEVVRVWFCNRRQKEKR [T30V], which abundance fitness is on record?
Answer: -0.1 ± 0.064

Question: For KKRTSIEVSVKGALESHFLKCPKPSAQEITNLADSLQLEKEVVRKWFCNRRQKEKR [V45K], which abundance fitness is on record?
Answer: -0.024 ± 0.096
